These results are taken from paper PMC9671922, “TOPOVIBL-REC114 interaction regulates meiotic DNA double-strand breaks” (Nature Communications, 2022).

This assay addresses T1, REC114^15–159 (REC114 PH domain) (mouse, UniProt Q9CWH4 15-159).
T1 construct: Expressed from pProEXHTb; His-tag cleaved with TEV protease; source: E. coli BL21-Gold (DE3), purified (Ni2+ resin, TEV cleavage, second Ni2+ column, Superdex 200)
T1 sequence (looked up): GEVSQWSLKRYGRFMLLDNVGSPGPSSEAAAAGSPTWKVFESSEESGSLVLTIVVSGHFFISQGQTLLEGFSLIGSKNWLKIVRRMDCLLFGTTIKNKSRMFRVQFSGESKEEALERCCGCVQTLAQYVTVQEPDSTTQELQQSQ
The assay can be described thus: ITC; 25 °C, ITC200; 0.3-1.8 mM TOPOVIBL injected into 30-40 µM REC114 in the cell; 20 mM Tris pH 8.0, 100 mM NaCl, 5% glycerol, 5 mM β-mercaptoethanol; one-site model. To be noted: both partners purified. Background: Isothermal titration calorimetry measures the heat released or taken up as one component is titrated into another.

B1: 6xHis-TOPOVIBL C-terminal domain (CTD; 452–579) (domain or fragment, mouse, UniProt J3QMY9 452-579, looked up)
chain: SCDTEQHLTPEKNISAQNTKDQHKNIAQEFPEESIGQAENKRPKRGSPNHGREESRVLGSARDRSPPKSATRDRELTEVSLTARGSQTQAAHGRAQAAEAASPAGGLEDLWLQEVSNLSEWLNPGHRS
notes: Cloned in pProEXHTb; also called TOPOVIBL CTD; source: E. coli BL21Gold (DE3), purified (Ni-Chelating Sepharose, Superdex 200)
For B1, the dissociation constant (Kd) was 1200 nM.

B2: TOPOVIBL^559–576 peptide (peptide)
peptide: EDLWLQEVSNLSEWLNPG
notes: also called TOPOVIBL peptide; TOPOVIBL C-terminal peptide
In turn, B2 yielded an equilibrium dissociation constant (Kd) of 3300 nM.

Broadly, the Kd is a measure of binding affinity in units of concentration. Higher therefore signals a looser complex.
